In patent US20210070882A1 (Hoffmann-La Roche, published 2021):

Columns and labels:
[1] = target: T1, human CD19 (human, UniProt P15391 20-556); assay: cell-based or functional assay
T1 sequence (looked up): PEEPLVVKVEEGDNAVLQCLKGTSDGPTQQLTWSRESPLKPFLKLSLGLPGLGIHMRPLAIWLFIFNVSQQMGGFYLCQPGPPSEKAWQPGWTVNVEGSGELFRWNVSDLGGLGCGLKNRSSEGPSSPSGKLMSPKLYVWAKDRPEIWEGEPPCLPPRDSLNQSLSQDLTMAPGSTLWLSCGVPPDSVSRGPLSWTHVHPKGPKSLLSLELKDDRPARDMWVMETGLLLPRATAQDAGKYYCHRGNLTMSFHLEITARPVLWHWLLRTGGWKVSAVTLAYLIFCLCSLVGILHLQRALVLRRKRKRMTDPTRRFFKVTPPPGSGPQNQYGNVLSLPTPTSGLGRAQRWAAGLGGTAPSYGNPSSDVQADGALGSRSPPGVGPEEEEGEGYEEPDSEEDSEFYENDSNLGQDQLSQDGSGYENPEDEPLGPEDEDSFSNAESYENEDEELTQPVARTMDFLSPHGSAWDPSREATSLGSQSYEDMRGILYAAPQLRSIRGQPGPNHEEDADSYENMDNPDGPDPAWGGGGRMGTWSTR

[2] = target: T1, human CD19; assay: cell-based or functional assay; remark: listed apart in the source

| Binder | Tumor cell lysis Z-138 cells (21 h), EC50 [1] | Tumor cell lysis Z-138 cells (21 h), EC50 (pM) [1] | T cell activation EC50 upon lysis of Z-138 cells, CD25/CD4 [2] | T cell activation EC50 upon lysis of Z-138 cells, CD25/CD8 [2] | T cell activation EC50 upon lysis of Z-138 cells, CD69/CD4 [2] | T cell activation EC50 upon lysis of Z-138 cells, CD69/CD8 [2] | T cell activation EC50 upon lysis of Z-138 cells, CD107/CD4 [2] | T cell activation EC50 upon lysis of Z-138 cells, CD107/CD8 [2] |
| --- | --- | --- | --- | --- | --- | --- | --- | --- |
| Molecule E: 1+1 IgG CrossFab, inverted, without charge modifications (CH1/CL exchange in CD3 binder, parental murine CD19 binder 8B8) (bispecific antibody) chain 1: not shown chain 2: QAVVTQEPSLTVSPGGTVTLTCGSSTGAVTTSNYANWVQEKPGQAFRGLIGGTNKRAPGTPARFSGSLLGGKAALTLSGAQPEDEAEYYCALWYSNLWVFGGGTKLTVLSSASTKGPSVFPLAPSSKSTSGGTAALGCLVKDYFPEPVTVSWNSGALTSGVHTFPAVLQSSGLYSLSSVVTVPSSSLGTQTYICNVNHKPSNTKVDKKVEPKSC chain 3: DAVMTQTPLSLPVSLGDQASISCRSSQSLENSNGNTYLNWYLQKPGQSPQLLIYRVSKRFSGVLDRFSGSGSGTDFTLKISRVEAEDLGVYFCLQLTHVPYTFGGGTKLEIKRTVAAPSVFIFPPSDEQLKSGTASVVCLLNNFYPREAKVQWKVDNALQSGNSQESVTEQDSKDSTYSLSSTLTLSKADYEKHKVYACEVTHQGLSSPVTKSFNRGEC chain 4: DKTHTCPPCPAPEAAGGPSVFLFPPKPKDTLMISRTPEVTCVVVDVSHEDPEVKFNWYVDGVEVHNAKTKPREEQYNSTYRVVSVLTVLHQDWLNGKEYKCKVSNKALGAPIEKTISKAKGQPREPQVCTLPPSRDELTKNQVSLSCAVKGFYPSDIAVEWESNGQPENNYKTTPPVLDSDGSFFLVSKLTVDKSRWQQGNVFSCSVMHEALHNHYTQKSLSLSP | 0.62 ng/mL | 4.2 pM | 3.55 pM | 3.31 pM | 1.04 pM | 1.71 pM | 2.09 pM | 2.76 pM |
| Molecule F: 1+1 IgG CrossMab with charge modifications (VH/VL exchange in CD3 binder, charge modification in CD19 binder, parental murine CD19 binder 8B8) (bispecific antibody) chain 1: EVQLQQSGPELVKPGASVKMACKASGYTFTDYIMHWVKQKTGQGLEWIGYINPYNDGSKYTEKFNGKATLTSDKSSITAYMELSSLTSEDSAVYYCARGTYYYGSALFDYWGQGTTLTVSSASTKGPSVFPLAPSSKSTSGGTAALGCLVEDYFPEPVTVSWNSGALTSGVHTFPAVLQSSGLYSLSSVVTVPSSSLGTQTYICNVNHKPSNTKVDEKVEPKSCDKTHTCPPCPAPEAAGGPSVFLFPPKPKDTLMISRTPEVTCVVVDVSHEDPEVKFNWYVDGVEVHNAKTKPREEQYNSTYRVVSVLTVLHQDWLNGKEYKCKVSNKALGAPIEKTISKAKGQPREPQVCTLPPSRDELTKNQVSLSCAVKGFYPSDIAVEWESNGQPENNYKTTPPVLDSDGSFFLVSKLTVDKSRWQQGNVFSCSVMHEALHNHYTQKSLSLSP chain 2: EVQLLESGGGLVQPGGSLRLSCAASGFTFSTYAMNWVRQAPGKGLEWVSRIRSKYNNYATYYADSVKGRFTISRDDSKNTLYLQMNSLRAEDTAVYYCVRHGNFGNSYVSWFAYWGQGTLVTVSSASVAAPSVFIFPPSDEQLKSGTASVVCLLNNFYPREAKVQWKVDNALQSGNSQESVTEQDSKDSTYSLSSTLTLSKADYEKHKVYACEVTHQGLSSPVTKSFNRGEC chain 3: DAVMTQTPLSLPVSLGDQASISCRSSQSLENSNGNTYLNWYLQKPGQSPQLLIYRVSKRFSGVLDRFSGSGSGTDFTLKISRVEAEDLGVYFCLQLTHVPYTFGGGTKLEIKRTVAAPSVFIFPPSDRKLKSGTASVVCLLNNFYPREAKVQWKVDNALQSGNSQESVTEQDSKDSTYSLSSTLTLSKADYEKHKVYACEVTHQGLSSPVTKSFNRGEC chain 4: not shown | 7.85 ng/mL | 53.7 pM | 10 pM | 6.5 pM | 3.97 pM | 2.59 pM | 7.54 pM | 4.02 pM |
